Test: soluble on expression in E. coli; label from the status in PepcDB or PDB records

| Sequence | soluble on expression in E. coli |
| --- | --- |
| GPGSMQAPSEDDVARKEALKRRVEEHMLWKMTFFQSRPPPPFIPKCRRRPEPIANAPVHSFYKRALEIVSAEKEHMSSFCSSASPPTMTKTEPPEGDGAKSKQDVWKHKMMLEMERRNPYTDINIRTDPRSTVVVSSLHPKSLEEDIRLFGEQFGRVVSVRLICDHNGKSRRYGFVQFGLEAEARKAVAHSRKRRLHGHAVVMEMERGRLDRDFLPKRLAEAKRQIEGSSSLCSDKRQRMEGSVKCPPAVAAGRSLPIPVSDTRDEVDAFLDDIMNLT | not soluble |
| MRILVVRHGLPEDPRCFAYDPVQRLIAIGTGRGHIRIIGDAGVDYLLKHESGEPVLHMQFLVNEGGLITSCGTDSIHLWNYRQKTAEIVHTVQLSKESVSCIHLPVAGKWLFIGTDKGNVYFLCLNSFLLSPYVINWNKAIDLSCRVHPGPVRQLAVSPAENTKLLIVYDKGIVVQWNLGTREVDRYPLDPPIKSVNWHFDGRQILTGNVDGSISLYNHKKSTEAIQRTTPHGSGPCRPIQQVEWKHMSETESIIMFSGGMPTDDGLPMPALTILKGGKSATVLEMDWPIIQFIPLNQNIWNSIPQCPHSVAVLLKHDFMVLDLNQNGHPVIESPHAMNIHESPVTCMAYYSDCPLDLIGALTLVGTKQRNKEFSARSWPVTGGLGRECATGHQELVVTGHKDGSLKFWQETGEHLQILYKLKSSSHFERLEEMETSDKVSHAVKYIELCLESRQLLVAGISGQVTLFRFTKQEICGTIAVVNIPLLGNLSSNLPNNDFDKSPVPNGPGKEIRRQRKIVSRESTNSLDTSDSGDERIVPFKVRGAPVKRPPGFVPELACFVPWHSHAKVDQITTICLNSSYGIIAIGTSSGLALVDTTQCALIYSWTTNELYGSDPTPAIQLSMQLSDAASPLEIDEFENDDTLIYNTDTGNYTLRSTRNSLTPSSNGFLHPGEMPTRPKSAANSSNKSGGMMGLFRRNTAELAATIRERYQGNRSESATTDRPDVEHRGETPPPTPNEGNKVQKAGRSHSVKGSFIRRFAKSSSSKEKKEVKIEVDNQSNSGIERSRSFHSHISEEGDSQRESPSSGRQLNTSSPSTSSQSLERSMSTQPQESITSLSFIHSYSKKNDSKMSPCLWVGTSAGASLALNLILPEDRFTSTIVVAPSGTVVRLKGQVISQSFMDNTFCIISPASESYKEAAKEQSATSPDRSLLNRVNTKASLAPQYSSSIDSNDEISQILIVAAENEVKVVALPTFSQLYVQKFDEIPLVKATPTHIRGYPCLMCLSAAGQIIMLSLPSLRILQTSTIFPHSVEIDDPLCQKTAFSDHGLGVYMASQTEMEKYTMCSEIAEQTGESLGELFVPCEMPEQPKNNSFLKGVSSIFGGTPRNDPNDIDAILSENMGVKNSSGVNPMRSVARTIPGPSVQMDRAQAGGVSAGQAAAMALQNLNERTEKLNATVDATENLKNNAMSLSSRTGKLVEKYEKKKWYNF | not soluble |
| MGSSHHHHHHGGTGENLYFQGGSGRPAGTLASFLERCSARKRGRGCVVLTGAGCSTESGIPDYRGPNGQYHRADFVLLTFQKFMRDDNEKRRYWARSMLGYSTMCGASCNAAHMALQAFTKSGAVAHILTQNVDGLHHLATYGGVGDAEEEHYYKYTTSDAPLKELHGNIHNVICTSCGFFMPRARLQRELRERNPGFYEQYGADVSRTRPDGDYSAPTEAVNAMHLVMCPRCNGFFKPHVVLFGENVPKPIVEATMSLVRDKASCLLCLGTSLQVYSAYRYVLQANQLGIPVAIVNAGTTRGDAIADLKLDVESVGSVLAETAHEMLGVPASMFFRRKTIQL | not soluble |
| GMTQQTDLQSKTNIDPLAMNDSFLAAADALAVDPMFGIPANVREVIARRGNATRLVILGTKGFGAHLMNVRHERPCEVIAAVDDFRYHSGELYYGLPIISTDRFTELATHDRDLVALNTCRYDGPKRFFDQICRTHGIPHLNFEQAVRAFGLQGNVDYRVDDWGADIVRNIPAFQTLAQRLADDYSVQTLYAVLNFHLTCEPEYYHEVERPYSTLYFRSGLLRFSDSEKMVDCGASIGESLAGLIGVTKGKFERVWMIEPDRINLQTLQNVLRRYTDTNFASRITVHGCGAGENTIRVPFNHEGGHGGFVKPADADHEPADLIDVRPIDDIIDDAPTFIKMDIEGSELSALKGARRAISEHKPKLAISAYHRSTDLLDLTNYILSIRPDYQIGLRHHTPDRWDTCLYFY | soluble |
| MAKWGQGDPRWIVAEREDGTNVNNWHWTARDATIWSKGKLRELLVGIAMENEAGRCEISELKQVEGEASCNSRKGKLIFFYEWNIKLAWKGTVKESGAKHKGLIEIPSLSEENEINDTEVNVSKKKGDGEILKDLMRTTGTAKVREALGEYLKALKTEFTTGMILPTKAVATQELTLQRKLNENKLQASPVALGVRIPTVALHLTELFDTTVEQLYSIFTVKELVQKFSKSPAVLEAERGGKFQMFDGNISGEYVELVTNRKIIMKWRCRNWPEALGFFPRTLCNS | not soluble |
| MGSDKIHHHHHHMPSTNPFLTLPYEPAFASLGSEFSDPVEAATFPAHQLRFRNDRLLPILGLDPATVTDEHFIEAFGRFQGRSPLLAMRYHGYQFGIYNPDLGDGRGFLYGQVRGRNGWLYDFGTKGSGRTPYSRGGDGKLTLKGGVREVLASEFLQRLGVRTGRCLSLIETGEELWRGDEPSPTRSSVMVRFNRTHIRFGTFERLHYFKRADLVRQLLDHVIATYYSHLLGDPEADAKFYAELTERTADLAAQWMAAGFCHAVLNTDNLSIVGESFDYGPWAFLDRFDPKFTAAYFDHSGRYRYENQPGICQLNLELLQVPLGMVMSAADLEAGIAGFGDRYQATYSRLMLRRLGFEADQLHSAIADDLIITTLQLLLRAPIGYNEFFARLRAQFQPSWRSDLSAILPDWITTDLEALPEAQWQGWRDRYHQLLTHLPESQLPLIQQQLAQANPEIAPIRPVVESVWDPIAIDDNWEPLEALLNRWRHDGDGAADGVVVPNAN | not soluble |
| MATTCQKRRYGTFRTGISKPGLSTRRFQHRDFSHGDFGTGTFRTAVSPPLTFSSPPTSTVATPYFPMRFINVKSHVSRPPPLHGDIPIGHEGTRVSRHVDDRCGLVVVSRHGRAGGCLSRLEHHHHHH | not soluble |
| MTNNAVLQLRAERLARATRPFLARGNRVRRCQRCLLPLKSCLCDTLTPSQAKSRFCLVMFDTEPMKPSNTGRLIADILPDTAAFQWSRTEPPQALLELVQHPDYQPIVVFPASYAGEAREVISTPPAGKPPLFIMLDGTWPEARKMFRKSPYLDHLPVISVDLSRLSAYRLREIHAEGQYCTAEVAIALLDLAGDTEAATSLGEHFTRFKTRYLAGKTQHPGNVTALEHHHHHH | soluble |
| SMSKHHKLARSLRSGPSDHDLKPNAATRDQLNIIVSYPPTKQLTYEEQDLVWKFRYYLTNQEKALTKFLKCVNWDLPQEAKQALELLGKWKPMDVEDSLELLSSHYTNPTVRRYAVARLRQADDEDLLMYLLQLVQALKYENFDDIKNGLEPTKKDSQSSVSENVSNSGINSAEIDSSQIITSPLPSVSSPPPASKTKEVPDGENLEQDLCTFLISRACKNSTLANYLYWYVIVECEDQDTQQRDPKTHEMYLNVMRRFSQALLKGDKSVRVMRSLLAAQQTFVDRLVHLMKAVQRESGNRKKKNERLQALLGDNEKMNLSDVELIPLPLEPQVKIRGIIPETATLFKSALMPAQLFFKTEDGGKYPVIFKHGDDLRQDQLILQIISLMDKLLRKENLDLKLTPYKVLATSTKHGFMQFIQSVPVAEVLDTEGSIQNFFRKYAPSENGPNGISAEVMDTYVKSCAGYCVITYILGVGDRHLDNLLLTKTGKLFHIDFGYILGRDPKPLPPPMKLNKEMVEGMGGTQSEQYQEFRKQCYTAFLHLRRYSNLILNLFSLMVDANIPDIALEPDKTVKKVQDKFRLDLSDEEAVHYMQSLIDESVHALFAAVVEQIH | soluble |
| AHHHHHHGSPCYNLKNKVAIVTGGGQGIGAAIAQLFAENGAKVVLAEIDEEAGLEREAMLRERGLDVTFIKTDVADEESVKNMVKKTVELYGGVDILVNNAAIMSVKSIFERTLEEWERVIRVNLTGPYICSRYAAEEMIKRGGGVIINIASTRALMSEPDTEPYSASKGGLLALTHSLAISLAKYRIRVVAVSPGWIETSRWKKSKLRSEPKLRPIDHEQHPAGRVGDPMDIAHICAFLADNEKAGFITGVNFVVDGGMTVKMIYAD | not soluble |
| MGSDKIHHHHHHMTYYESGLLRARWASWQDARAGRTAQANARWGWIKAPGERGPILWMQSFSDADQQRLGIELAKAMAEKRRDLRMVMTFETEYPALLEQHTEGAERLGYGFGPCDHPQAVGRMLERLTPLRYLALGRAPRPRLAAALGRRKIPAVLMAADPGLQIPAPLEAVYPRDARQAGAWAGRGVTEAVQEPVDFATLFTIAQVDPNFRAMISGTDEGLLWWAQGLSAAQWAGWRRAWAASPLSRHGLLFLGGTGAPTDLPRLSAWQRAPLPAGAVVVADDDRWYPALSAGAQAVHLQKASPMLQWQVYAGSRPISVSPGVTLNAAEPLDADTILTLEEPAQILDHWQALRGDAMAARQRGDATRRIFWQERRHAGERLPEFLQRVFDW | not soluble |
| MGHHHHHHSHMASLFRSYLPAIWLLLSQLLRESLAAELRGCGPRFGKHLLSYCPMPEKTFTTTPGGWLLESGRPKEMVSTSNNKDGQALGTTSEFIPNLSPELKKPLSEGQPSLKKIILSRKKRSGRHRFDPFCCEVICDDGTSVKLCT | not soluble |
| MSLIKLFLLKLYWAHFSTKQIHQFLMAYPNVIKEEGRKKDSYLCEWVNREENVHLLRKYYAFIKLDHNDIIKELQKLKVSYITYMDSEYPVLLKEIYQFPLLLFYKGNIKLINNMHHLAVVGARDSTSYTQQSLEFLLSNDKSKYLTIVSGLAQGADAMAHQIALKYNLPTIAVLAFGHQTHYPKSTLALRNKIEEKGLVISEYPPHTPIAKYRFPERNRIISGLSKGVLITEAKEQSGSHITIDFALEQNRNVYVLPGSMFNPMTKGNLLRIQEGAKVVLNANDIFEDYYIEGHHHHHH | soluble |
| MGSDKIHHHHHHMNRLVSRSTLLNASRCFSRTAEASAKQTCLIETHKKHGGKLVEFAGYDMPTQYADFSIKESTIHTRKHVSLFDVSHMLQTYITGKDRVAFIESLTTADVQGLQENSGTLSVFTNEKGGIKDDLIIMKTDKDFLFLVTNAGCIEKDLPYLQENAAAWRSKGKDVKIETLDNRGLVAVQGPEMAKVLQEGTDIDLSKLTFMKTTVGKVFGIDGCRVTRCGYTGEDGVEISVDPTKAEQLVERLLASQAGSVKLAGLGARDALRLEAGLCLYGSDIEENTTPIEAGLAFVVAKRRRETLDFPGAEHIVKQLKEKSWPKRRVGLLAPAGRCPRSHLPLIDPLDKCSIGFVTSGCPSPTLGKNIAIAYVDKSHSKIGTKFVVDFGAKQAPVEVVKMPFVPTNYFTGK | not soluble |
| HPWQRASVWAEILPSILFRTDFTNAQDEPDEMSSKLHRRSSFQPAFQVGVAYRVSDHMGIEAHAGYQLGEAVYHLMEETSTWSIIKKRATVPYRGFEFAVGLQFYPFR | not soluble |
| VPKLVDHDERRRSITAAAWRLIAARGIEAANMRDIATEAGYTNGALSHYFAGKDEILRTSYEHISEATDRRIAEALGDATGLDALRILCREVMPINEEQLLEARIAASLWPRAMYDEQMAATNRRTMDNWREQMAIFLEQAREEGSVGDIDVTIVVEQLLNMMMGMQILGVLTPGETSSERQLEMLEQFVAAL | soluble |
| GAQRRNEIQVPDLDGYTTLKCDFHMHSVFSDGLVWPTVRVDEAYRDGLDAISLTEHIEYRPHKQDVVSDHNRSFDLCREQAEKLGILLIKGSEITRAMAPGHFNAIFLSDSNPLEQKDYKDAFREAKKQGAFMFWNHPGWDSQQPDTTKWWPEHTALYQEGCMHGIEVANGHLYMPEAIQWCLDKNLTMIGTSDIHQPIQTDYDFEKGEHRTMTFVFAKERSLQGIREALDNRRTAAYFHELLIGREDLLRPFFEKCVKIEEVSRNEQGVTLSITNVTDLVLKLKKTAHDTLLVYFRDMTLKPHTRYTVRIGFKQGIKGGDVNFEVTNFIVAPDKGLKYTISL | soluble |
| QGDLLLAQYTRAYGYYNPAYAGMRKEIFITALHNRQWEGMPRSPKSFVVLADAPIRFFDREHGVGVRVVTETRGLFAINELMGQYAFKQKLFGGDLSVALQAGLVNTAFDGTKVELETENDPAIPLTKVSGKAFDIGAGIYYRRKE | not soluble |

From the DeepSol protein solubility set
